Laboratory results taken from patent US20230071609A1 (Genentech, published 2023).

T1: gD-SRA-ID-GPI (construct e) (human, UniProt O14791 305-398, C-terminal GPI anchor)
T1 sequence: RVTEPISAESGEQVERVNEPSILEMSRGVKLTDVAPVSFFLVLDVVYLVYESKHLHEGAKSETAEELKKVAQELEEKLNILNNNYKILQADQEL

T2: iAPOL1-G0 in podocytes (EIK variant, doxycycline-inducible, in APOL1 KO podocytes) (human, UniProt O14791 29-398)
T2 construct: Stably re-expressed untagged APOL1 isoform A in APOL1 KO clone 89401-3; also called iAPOL1-G0 podocytes; iAPOL1 podocytes
T2 chain: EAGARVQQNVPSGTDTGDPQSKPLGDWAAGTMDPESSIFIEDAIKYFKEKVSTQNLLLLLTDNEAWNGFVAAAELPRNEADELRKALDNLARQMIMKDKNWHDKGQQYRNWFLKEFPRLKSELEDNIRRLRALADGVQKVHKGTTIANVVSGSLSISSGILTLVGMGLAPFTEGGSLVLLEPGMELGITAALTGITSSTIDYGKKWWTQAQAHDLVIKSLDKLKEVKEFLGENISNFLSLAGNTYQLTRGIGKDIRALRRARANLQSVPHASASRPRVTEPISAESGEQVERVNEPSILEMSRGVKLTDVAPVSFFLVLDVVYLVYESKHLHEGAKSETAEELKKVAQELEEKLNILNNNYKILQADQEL

B1: antibody 3.1C1 (antibody, V domains shown)
VH: QVQLQQSGPELVKPGASVRISCKASGYTFTNYFIHWVKQRPGQGLEWIGWINPGNLNTKYTEEFKGKATLTADKSSSTAYIQLNSLTSEDSAVYFCVNGNPFVYWGQGTLVTVSA
VL: DIVMTQSPSSLTVIAGEKVTLNCKSSQSLLNSGNQKKYLTWLQQKPGQPPKLLIYWTSTRDSGVPDRFTGSGSGTDFTLTISSVQAEDLAVYYCQNDYSYPLTFGAGTKLEIKR
notes: Mouse mAb, cloned as murine IgG2a LALAPG; not written separately; also called SRA-ID mAb 3.1C1
B2: antibody 3.6E10 (antibody, V domains shown)
VH: QVQLQQSGAELAKPGASVKMSCKASGYIFTSYYLHWVKQRPGQGLEWIGYINPNTGYTEYTQNFKDRATLTADKSSSTAYMQLTSLTSEDSAVYFCVNGNPFVYWGQGTLVTVSA
VL: DIVMTQSPSSLTVTTGEKVTMTCRSSQSLLNSGNQKNYLTWFQQKPGQPPKLLIYWTSTRYSGVPDRFTGSGSGTDFTLTISSVQAEDLAVYYCQNDYSYPLTFGAGTKLEIKR
notes: Mouse mAb, cloned as murine IgG2a LALAPG

Legend:
[1] = molecular target: T1, gD-SRA-ID-GPI (construct e); assay: flow cytometry, live CHO cells expressing the construct, 5 µg/ml
Method: Stably transfected live (not fixed or permeabilized) CHO cells expressing the gD-iAPOL1-GPI constructs indicated in FIGS. 1A-1E after induction with 5 μg/ml dox for 48 h, showing differential antibody binding at 5 μg/ml. […] White histograms are Alexa488 anti-mouse or anti-rabbit secondaries only; grey histograms are the anti-APOL1 signals. A representative histogram for each category is shown: 3.7D6 for PFD; 3.3A8 for C-terminus of MAD, 3.5H9 for N-terminus of MAD; 3.1C1 for SRA-ID; 3.2D4 for multi-domain; 3.3F7 for conformational and 3.5B10 for FACS-negative (FACS-ve). The prefix 3 in the name of the antibodies denotes murine monoclonals from Method #3 (as shown in Example 1 below); other antibodies (not illustrated here) starting with the number 4 are murine monoclonals derived from mice additionally boosted with SRA-ID protein; and prefix 5-named antibodies are rabbit monoclonals from Method #5 (Table 2A; and Example 2). […] The Sigma polyclonal (HPA018885, raised to aa 263-387) and the Epitomics rabbit monoclonal (EPR2907(2), raised to an undisclosed peptide) are SRA-ID binders. […]
Cells were harvested with 5 mM EDTA in PBS, washed once with growth media and twice with PBS. […] Signals were read in a FACSCalibur3 (Becton Dickinson), with the exception of FIG. 8A and FIG. 14, which used a FACSCelesta, and data was analyzed using FlowJo v8.4.5.

[2] = molecular target: T2, iAPOL1-G0 in podocytes (EIK variant, …); assay: immunoelectron microscopy, APOL1-G0 podocytes
Method: Scale bars are 200 nm. APOL1 appears more closely associated with the inner ER membrane face than does the luminal KDEL.
For iEM, 1.4×10⁶ HEK-293 cells in T25 flasks were reverse transfected with 5.4 μg APOL1 or APOL2 cDNA with 12 μl Fugene 6 (Roche 11814443001) for 50 h or 65 h, respectively. Podocytes and transiently transfected HEK-293 cells were fixed with 4% paraformaldehyde in 0.1M phosphate buffer (PB), pH 7.4, for 2 h at room temperature, then overnight at 4° C., and with 2% paraformaldehyde, 0.2% glutaraldehyde in 0.1 M phosphate buffer (PB), pH 7.4, for 2 h at room temperature, respectively. Fixations were continued in 1% PFA in 0.1 M PB at 4° C. for several days. […] For quantitation, random images of APOL1/2 expressing HEK-293 cells and podocytes were made. The positions of at least 50 gold particles per antibody were scored as either (i) OMF: overlapping on outer ER membrane surface and cytosol, or located in the cytosol at a distance ≤15 nm between outer ER membrane surface and the 10 nm gold particle surface; (ii) IMF: overlapping on inner ER membrane surface and ER lumen, or located in the lumen at a distance ≤15 nm between inner ER membrane surface and gold particle surface; or (iii) Lumen: within the ER lumen, with a distance >15 nm between the 10 nm gold particle surface and the nearest inner ER membrane surface. […]

Binder | binding result [1] | binding result [2]
B1 | binds | 
B2 |  | binds
